From publication PMC9779362, “The J Domain of Sacsin Disrupts Intermediate Filament Assembly” (International Journal of Molecular Sciences, 2022)

Target: the molecule itself
Assay: negative-stain transmission electron microscopy of in vitro assembly; purified NFL (0.24 µg/µL) dialysed stepwise out of urea into assembly buffer, overnight at 4 °C; 2% uranyl acetate

B1: recombinant human NFL (neurofilament light chain) (natural protein, UniProt P07196 1-543, looked up)
chain: MSSFSYEPYYSTSYKRRYVETPRVHISSVRSGYSTARSAYSSYSAPVSSSLSVRRSYSSSSGSLMPSLENLDLSQVAAISNDLKSIRTQEKAQLQDLNDRFASFIERVHELEQQNKVLEAELLVLRQKHSEPSRFRALYEQEIRDLRLAAEDATNEKQALQGEREGLEETLRNLQARYEEEVLSREDAEGRLMEARKGADEAALARAELEKRIDSLMDEISFLKKVHEEEIAELQAQIQYAQISVEMDVTKPDLSAALKDIRAQYEKLAAKNMQNAEEWFKSRFTVLTESAAKNTDAVRAAKDEVSESRRLLKAKTLEIEACRGMNEALEKQLQELEDKQNADISAMQDTINKLENELRTTKSEMARYLKEYQDLLNVKMALDIEIAAYRKLLEGEETRLSFTSVGSITSGYSQSSQVFGRSAYGGLQTSSYLMSTRSFPSYYTSHVQEEQIEVEETIEAAKAEEAKDEPPSEGEAEEEEKDKEEAEEEEAAEEEEAAKEESEEAKEEEEGGEGEEGEETKEAEEEEKKVEGAGEEQAAKKKD
notes: neurofilament light polypeptide (NFL), human, cloned into pET23b (gift of Dr. Walter Mushynski); Used as assembled filaments (TEM, sedimentation) and as the soluble fraction after centrifugation (pull-down); also called soluble recombinant NFL; source: bacteria (pET23b), inclusion bodies solubilised in 8 M urea, purified on hydroxyapatite, dialysed into assembly buffer
  binding result: binds
